Experimental data reported in US20150218285A1 (TORAY INDUSTRIES, published 2015).
Changes are numbered by the printed parent chain.

T1: CAPRIN-1 protein on the cell surface of human cancer cells (human, UniProt Q14444 2-709)
T1 construct: whole, on cells; endogenous protein of human cancer cell lines
T1 sequence (looked up): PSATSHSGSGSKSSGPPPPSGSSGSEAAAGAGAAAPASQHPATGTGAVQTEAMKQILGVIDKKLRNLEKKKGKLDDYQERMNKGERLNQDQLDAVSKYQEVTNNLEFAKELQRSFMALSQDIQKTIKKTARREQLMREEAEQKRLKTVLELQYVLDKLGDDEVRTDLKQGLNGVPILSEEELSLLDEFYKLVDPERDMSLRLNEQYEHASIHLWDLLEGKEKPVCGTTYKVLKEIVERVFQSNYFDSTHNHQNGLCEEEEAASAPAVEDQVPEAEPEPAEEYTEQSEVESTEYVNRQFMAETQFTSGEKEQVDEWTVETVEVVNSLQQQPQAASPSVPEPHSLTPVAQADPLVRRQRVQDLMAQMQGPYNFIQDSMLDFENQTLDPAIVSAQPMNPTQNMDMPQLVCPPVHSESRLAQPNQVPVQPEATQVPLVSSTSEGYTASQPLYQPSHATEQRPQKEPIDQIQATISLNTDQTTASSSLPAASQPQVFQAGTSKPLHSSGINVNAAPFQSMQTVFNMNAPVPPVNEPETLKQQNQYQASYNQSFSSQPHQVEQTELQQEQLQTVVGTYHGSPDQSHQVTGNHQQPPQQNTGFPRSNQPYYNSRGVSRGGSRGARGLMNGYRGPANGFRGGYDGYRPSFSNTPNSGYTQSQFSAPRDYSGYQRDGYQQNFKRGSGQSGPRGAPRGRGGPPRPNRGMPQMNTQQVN

B1: mouse monoclonal antibody #8 (antibody, V domains shown)
VH: GGGLVKPGGSLKLSCAASGFAFSSYDMSWIRQTPEKRLEWVAYISSGAGSTYYPDTVKGRFTVSRDNAKNTLYLQMSSLKSEDTAMYYCARHFYRFDYWGQGTTVTVSS
VL: SIVMTQTPKFLLVSAGDRITITCKASQSVSNDVAWYQQKPGQSPKLLIYYASNRYTGVPDRFTGSGYGTDFTFTISTVQAEDLAVYFCQQDDRFPLTFGAGPS
notes: mouse hybridoma antibody; also called anti-CAPRIN-1 monoclonal antibody #8
B2: mouse monoclonal antibody #6 (antibody)
chain 1: DAELVKPGASVKISCKASGYTFTDHSIHWVQQKPEQGLEWIGYISPGNGNIKYNEKFKGKATLTADKSSSTAYMQLNSLTSEDSAVYFCKRSLGRGGPYYFDYWGQGTTVTVSS
chain 2: DIVLTQAAPSLPVTPGESVSISCRSSKSLLHSNGNTYLYWFLQRPGQSPQLLIYRMSNLASGVPDRFSGSGSGTAFTLRISRVEAEDVGVYYCMQHREYPVTFGSGPN
B3: mouse-chicken chimeric antibody #1 (antibody, mouse IgG1, V domains shown)
VH: AVTLDESGGGLQMSRGGLSLVCKASGFDFSSYQMNWIRQAPGKGLEFVAAINKFGNSTGHGAAVKGRVTISRDNGQSTVRLQLNNLRAEDTAIYFCTKHAYGYCGSGTWCAAGEIDAWGHGTEVIVSS
VL: QAASTQPSSVSANPGETVEITCSGGGSYSYGWFQQKSPGSAPVTVIYYNNKRPSDIPSRFSGSKSGSTGTLTITGVQADDEAVYYCGSGDSTDTAVFGAGTTLTVLG
B4: mouse-chicken chimeric antibody #2 (antibody, mouse IgG1, V domains shown)
VH: AVTLDESGGGLQTPGGGLSLVCKASGFTFSSFDMGWVRQAPGKGLEFVAQINDAGSRTWYATAVKGRATISRDNGQTTVRLQLNNLRAEDTGTYYCTRGSGYVGAGAIDAWGHGTEVIVS
VL: AALTQPSSVSANPGETVKITCSGGSGYYGWYQQQKSPGSAPVTVIYQNDKRPSDIPSRFSGSGSGSTNTLTITGVQAEDEAVYFCGRYDSTDSGIFGAGTTLTVL
B5: mouse-chicken chimeric antibody #3 (antibody, mouse IgG1, V domains shown)
VH: AVTLDESGGGLQTPGGALSLVCKASGFTFSGYDMLWVRQAPGKGLEWVAGIGSTGGGTDYGAAVKGRATISRDNGQSTVRLQLNNLRAEDTATYYCAKVAGGCNSGYCRDSPGSIDAWGHGTEVIVS
VL: AVTQQPASVSANPGETVKITCSGGGSRNYYGWYQQKSPGSVPVTVIYYDDQRPSNIPSRFSGALSGSTSTLTITGVQADDEAVYFCGSADSNTYEGSFGAGTTLTVL
B6: human-mouse chimeric anti-CAPRIN-1 antibody #34 (antibody, human IgG1, kappa, V domains shown)
VH: GAELVRPGTSVKVSCKASVYAFTNYLIEWVKQRPGQGLEWIGVINPKSGGTKYNEKFRGKATLTADKSSSTAYMQLSSLTSGDSAVYFCAITGTDYWGQGTTLTVSS
VL: QGTRCDIQMTQTTSSLSASLGDRVTISCSASQGINNYLNWYQQKPDGTVKLLIYYTSSLRSGVPSRFSGSGSGTDYSLTISNLEPEDVATYYCQQYSKLPRTFGGGTKLEIKR
B7: human-mouse chimeric anti-CAPRIN-1 antibody #28 (antibody, human IgG1, kappa, V domains shown)
VH: GPDLVKPGASVKISCKASGYSFTAYYMHWVKQSHGKSLEWIGRVNPNNGGTTYNQKFKGKAILTVDKSSSTAYMELRSLTFEDSAVYYCARRIYYGYFDYWGQGTTVTVSS
VL: AFFAVSLGQRATISCKASQSVDYDGDSYMNWYQQKPGQPPKLLIYVASNLESGVPARFSGSGSGTDFTLNIHPVEEEDAATYYCQQSNEDPYTFGGGTKLEIKQ
B8: human-mouse chimeric anti-CAPRIN-1 antibody #36 (antibody, human IgG1, kappa)
heavy: not shown
light: QDELSNPVTSGESVSISCRSSKSLLYKDGKTYLNWFLQRPGQSPQLLIYLMSTRASGVSDRFSGSGSGTDFTLEISRVKAEDVGVYYCQQLVEDPLTFGAGTKLELKRTVAAPSVFIFPPSDEQLKSGTASVVCLLNNFYPREAKVQWKVDNALQSGNSQESVTEQDSKDSTYSLSSTLTLSKADYEKHKVYACEVTHQGLSSPVTKSFNRGEC
B9: human-mouse chimeric anti-CAPRIN-1 antibody #29 (antibody, human IgG1, kappa)
heavy: not shown
light: GTCGDIVMSQSPSSLAVSAGEKVTMSCKSSQSLLNSRTRKNYLAWVQHKPGQSPRLLIYWASTRESGVPDRFTGSGSGTDFTLTISSVQAEDLAVYYCRQSYNLVTFGAGPSTVAAPSVFIFPPSDEQLKSGTASVVCLLNNFYPREAKVQWKVDNALQSGNSQESVTEQDSKDSTYSLSSTLTLSKADYEKHKVYACEVTHQGLSSPVTKSFNRGEC
B10: human-mouse chimeric anti-CAPRIN-1 antibody #25 (antibody, human IgG1, kappa, V domains shown)
VH: GPGLVQPSQSLSITCTVSGFSLTTYDLHWVRQSPGKGLEWLGVIWSGGSTDYNAAFISRLSISKDNSKSQVFFKMNSLQANDTAIYYCARNYGYSAWFAYWGQGTLVTVSA
VL: DVLMTQTPLSLPVSLGDQASISCRSSQSIVHSNGNTYLEWYLQKPGQSPKLLIYKVSNRFSGVPDRFSGSGSGTDFTLKISRVEAEDLGVYYCFQGSHVPLTFGAGTKLELKR
B11: human-mouse chimeric anti-CAPRIN-1 antibody #27 (antibody, human IgG1, kappa, V domains shown)
VH: GGGLVQPGGSMRLSCVASGFTFSNSWFNWVRQSPEKGLEWVAEIRLTSDNYAIYYAESVKGRFTISRDDSKSSVYLQMNNLRAEDTGIYYCTRPETARATFAYWGQGTTVTVSS
VL: B10 VL with L51V, S57F, L101R, A105G, E110N, L111Q, K112T, R113G
B12: human-mouse chimeric anti-CAPRIN-1 antibody #30 (antibody)
heavy: not shown
light: DVQITQSPSYLAASPGETITINCRASKSISKYLAWYQEKPGKTNKLLIYSGSTLQSGIPSRFSGSGSGTDFTLTISSLEPEDFAMYYCQQHNEYPYTFGGGTKLEIKRTVAAPSVFIFPPSDEQLKSGTASVVCLLNNFYPREAKVQWKVDNALQSGNSQESVTEQDSKDSTYSLSSTLTLSKADYEKHKVYACEVTHQGLSSPVTKSFNRGEC
B13: human-mouse chimeric anti-CAPRIN-1 antibody #31 (antibody, human IgG1, kappa)
heavy: not shown
light: B12 light with Y96W
B14: human-mouse chimeric anti-CAPRIN-1 antibody #26 (antibody, human IgG1, kappa)
heavy: not shown
light: PASSSDVLMTQTPLSLPVRLGDQSSISCRSSQSIVHSNGNTYLEWYLQKPGQSPKLLIYKVSNRFSGVPDRFSGSGSGTDFTLKISRVEPEDLGVYYCFQGSHVPYTSEGDQAEIKLATVAAPSVFIFPPSDEQLKSGTASVVCLLNNFYPREAKVQWKVDNALQSGNSQESVTEQDSKDSTYSLSSTLTLSKADYEKHKVYACEVTHQGLSSPVTKSFNRGEC
B15: human-chicken chimeric antibody #2 (antibody, human IgG1, kappa, V domains shown)
VH: AVTLDESGGGLQTPGGGLSLVCKASGFTFSSFDMGWVRQAPGKGLEFVAQINDAGSRTWYATAVKGRATISRDNGQTTVRLQLNNLRAEDTGTYYCTRGSGYVGAGAIDAWGHGTEVIVSA
VL: AALTQPSSVSANPGETVKITCSGGSGYYGWYQQQKSPGSAPVTVIYQNDKRPSDIPSRFSGSGSGSTNTLTITGVQAEDEAVYFCGRYDSTDSGIFGAGTTLTVLT
B16: human-mouse chimeric anti-CAPRIN-1 antibody #23 (antibody, human IgG1, kappa, V domains shown)
VH: GGGLVKPGGSLKLSCAASGFTFSSYGMSWVRQTPEKRLEWVATISSGGSYTYYPDSVKGRFTISRDNAKNTLYLQMSSLRSEDTAMYYCASLASYYFDYWGQGTTLTVSS
VL: GARCDVQMIQSPSSLSASLGDIVTMTCQASQGTSINLNWFQQKPGKAPKLLIYGASSLEDGVPSRFSGSCFGTDFTLTISSLEDEDMATYFCLQHSYLPPLTFGAGTKLELKR
B17: human-mouse chimeric anti-CAPRIN-1 antibody #24 (antibody, human IgG1, kappa, V domains shown)
VH: B16 VH
VL: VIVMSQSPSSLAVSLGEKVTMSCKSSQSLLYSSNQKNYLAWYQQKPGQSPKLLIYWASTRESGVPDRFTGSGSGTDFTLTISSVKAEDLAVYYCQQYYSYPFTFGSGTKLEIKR

target: T1, CAPRIN-1 protein on the cell surface of …; assay: flow cytometry on Hep3B, HepG2, SK-Hep-1, SW480; culture supernatant; vs isotype control
Experimental: Subsequently, four liver cancer cell lines (Hep3 GB, HepG2, SK-Hep-1, and SW480), which were confirmed to express a CAPRIN-1 gene, were investigated for whether or not a CAPRIN-1 protein is expressed on the surfaces of these cells. 1×10⁶ cells of each cell line were centrifuged with a 1.5-mL micro centrifugation tube. To the cells was added the culture supernatant (100 μL) containing any of mouse monoclonal antibodies #1 to #22 against a CAPRIN-1 protein reacting to cancer cell surface produced in Example 4 and mouse-chicken chimeric antibodies #1 to #3 against a CAPRIN-1 protein produced in the above (2), followed by being left to stand on ice for 1 hour. After washing with PBS, the cells were suspended in a FITC-labeled goat anti-mouse IgG antibody (manufactured by Invitrogen Corporation) diluted by 500-fold with PBS containing 0.1% FBS, followed by being left to stand on ice for 1 hour. After washing with PBS, the fluorescence intensity was measured with FACS Calibur available from Becton, Dickinson and Company. Separately, as a control, the same procedure as in above was performed using an iso-type control antibody, instead of the culture supernatants containing the mouse monoclonal antibodies #1 to #22 against a CAPRIN-1 protein and the mouse-chicken chimeric antibodies #1 to #3. As a result, the fluorescence intensity in the cells to which any of the monoclonal antibodies #1 to #22 and the mouse-chicken chimeric antibodies #1 to #3 was added was 20% or more higher than that in the control in every case. Specifically, in the case of using mouse-chicken chimeric antibody #1, the fluorescence intensity was enhanced by 200% or more in both SK-Hep-1 and Hep3B. […] The rate of increase in the fluorescence intensity is represented by the rate of increase in the mean fluorescence intensity (MFI value) in each cell and is calculated by the following calculation formula: […]

Binder | rate of increase in mean fluorescence intensity
B1 | ≥ 20%
B2 | ≥ 20%
B3 | ≥ 20%
B4 | ≥ 20%
B5 | ≥ 20%

target: T1, CAPRIN-1 protein on the cell surface of …; assay: cell-based or functional assay

Binder | cytotoxicity (ADCC, 51Cr release, human NK cells) on Hep3B, HepG2, SK-Hep-1, SW480 | cytotoxicity (ADCC, 51Cr release) on SK-Hep-1 | ADCC activity on Hep3B, HepG2, SK-Hep-1, SW480
B6 | ≥ 20% | – | –
B1 | – | ≥ 12% | –
B7 | – | – | ≥ 20%
B2 | – | ≥ 12% | –
B8 | ≥ 20% | – | –
B9 | – | – | ≥ 20%
B10 | – | – | ≥ 20%
B11 | – | – | ≥ 20%
B12 | ≥ 20% | – | –
B13 | ≥ 20% | – | –
B14 | – | – | ≥ 20%
B15 | – | ≥ 12% | –
B16 | – | – | ≥ 20%
B17 | – | – | ≥ 20%
